We go through two substances from paper PMC11665612.

In experiment [1] the target is FL-G41C CaM (calmodulin G41C labelled with fluorescein-5-maleimide at Cys41, N-lobe) (UniProt P0DP23). Put plainly: fluorescence quenching on mixing.
The target in experiment [2] is heme-binding globin domain of human androglobin (Adgb), Cys132 mutated to Ser (human).

As to “heme-binding globin domain of human androglobin (Adgb), Cys132 mutated to Ser (domain or fragment)”, the decrease in fluorescence intensity at 531 nm in experiment [1] stood at 35%.
For the substance “calmodulin (CaM) (from UniProt P0DP23 1-149) (natural protein)”, in experiment [2], the k1 (fast) of nitrite reduction, Adgb–CaM complex against Adgb alone worked out at 1.8 fold and the kcat of nitrite reduction by the Adgb–CaM complex (nitrite 2.5–15 mM) stood at 0.64 s⁻¹.
